Data reported in patent US20240261333A1 (published 2024).

Legend:
Test in all cases: co-IP, anti-FLAG, lysate of cells with C-FLAG B3GNT2; mass spectrometry
HNRNPA2B1 = target: T1, HNRNPA2B1 (human, UniProt P22626-2 1-341)
T1 construct: also called NP_002128.1 (+1)
Protocol: (§1) Cells were plated in 10-cm cell culture dishes and grown to 60-80% confluency. For each condition, two biological replicates were harvested for co-IP. Cells were washed with PBS and 4 mL of lysis buffer (20 mM HEPES, 1% Triton X-100, 150 mM NaCl, 1 mM EDTA, and 10% glycerol) containing protease inhibitor cocktail was added. Cells were scraped and lysate was incubated at 4° C. under rotary agitation for 1 h. Lysate was centrifuged at 14,000×g for 10 min at 4° C. Supernatant was transferred to a new tube and an aliquot was taken as the input. […] For Western blots, 10 μg/mL Chicken Anti-FLAG (Aves labs ET-DY100) and IgY control (R&D Systems AB-101-C) antibodies were biotinylated (Thermo Fisher Scientific 90407) and added to the respective conditions. Lysates with antibodies were incubated at 4° C. under rotary agitation overnight. For each mL of lysate, 50 μL of Pierce Protein A/G Magnetic Beads (Mass spectrometry; Thermo Fisher Scientific 88803) or Pierce Streptavidin Magnetic Beads (Western blot; Thermo Fisher Scientific 88817) was washed twice with lysis buffer. Lysates with antibodies were added to the beads and incubated at 4° C. under rotary agitation for 4 h. Beads were washed with lysis buffer 3 times and resuspended in lysis buffer for storage.
(§2) Magnetic beads were resuspended in 100 mM Tris pH 7.8, reduced, alkylated and digested with trypsin at 37° ° C. overnight. This solution was subjected to solid phase extraction to concentrate the peptides and remove unwanted reagents followed by injection onto a Shimadzu HPLC with fraction collector. Eight fractions were collected and after concentration were injected on a Waters NanoAcquity HPLC equipped with a self-packed Aeris 3 μm C18 analytical column 0.075 mm by 20 cm, (Phenomenex). Peptides were eluted using standard reverse-phase gradients. The effluent from the column was analyzed using a Thermo Orbitrap Elite mass spectrometer (nanospray configuration) operated in a data dependent manner for 54 minutes. The resulting fragmentation spectra were correlated against the known database using Proteome Discover 1.4 (Thermo Fisher Scientific).

PRRC2A = target: T2, PRRC2A (human, UniProt P48634 1-2157)
T2 construct: also called NP_004629.3 (+1)
Protocol: as §1, §2

FUBP3 = target: T3, FUBP3 (human, UniProt Q96I24 2-572)
T3 construct: also called NP_003925.1 (+2)
T3 sequence (looked up): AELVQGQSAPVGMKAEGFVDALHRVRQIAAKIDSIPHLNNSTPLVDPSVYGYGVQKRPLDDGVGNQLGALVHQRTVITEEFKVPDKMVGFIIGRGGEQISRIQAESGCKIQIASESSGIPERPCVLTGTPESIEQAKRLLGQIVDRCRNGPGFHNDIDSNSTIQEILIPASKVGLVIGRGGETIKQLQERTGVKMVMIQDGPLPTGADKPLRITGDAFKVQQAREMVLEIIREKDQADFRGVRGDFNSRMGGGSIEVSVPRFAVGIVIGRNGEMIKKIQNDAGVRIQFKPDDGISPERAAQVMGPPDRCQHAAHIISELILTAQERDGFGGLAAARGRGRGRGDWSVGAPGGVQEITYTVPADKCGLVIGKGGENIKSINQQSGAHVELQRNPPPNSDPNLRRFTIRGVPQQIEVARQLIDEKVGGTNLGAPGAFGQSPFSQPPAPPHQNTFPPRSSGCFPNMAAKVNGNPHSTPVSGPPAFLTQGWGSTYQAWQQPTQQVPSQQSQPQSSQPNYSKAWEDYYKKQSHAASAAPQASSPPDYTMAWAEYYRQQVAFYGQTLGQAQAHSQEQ
Protocol: as §1, §2

RBM39 = target: T4, RBM39 (human, UniProt Q14498-3 2-508, limits assumed)
T4 construct: also called NP_001310351.1 (+3)
T4 sequence (looked up): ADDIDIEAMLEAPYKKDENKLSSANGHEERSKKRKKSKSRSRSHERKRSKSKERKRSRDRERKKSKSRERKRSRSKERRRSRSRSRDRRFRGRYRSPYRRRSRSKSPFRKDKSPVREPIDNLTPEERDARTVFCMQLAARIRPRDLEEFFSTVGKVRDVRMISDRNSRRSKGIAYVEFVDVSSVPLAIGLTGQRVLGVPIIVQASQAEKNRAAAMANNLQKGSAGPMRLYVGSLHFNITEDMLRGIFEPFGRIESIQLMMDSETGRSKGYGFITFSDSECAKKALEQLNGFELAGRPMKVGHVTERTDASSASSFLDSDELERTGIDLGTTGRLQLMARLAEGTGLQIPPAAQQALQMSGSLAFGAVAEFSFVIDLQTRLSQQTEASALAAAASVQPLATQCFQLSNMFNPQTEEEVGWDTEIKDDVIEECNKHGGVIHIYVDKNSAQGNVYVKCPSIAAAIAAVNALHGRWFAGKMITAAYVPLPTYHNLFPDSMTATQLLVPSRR
Protocol: as §1, §2

MYH11 = target: T5, MYH11 (human, UniProt P35749-3 1-1945, limits assumed)
T5 construct: also called NP_001035202.1 (+4)
Protocol: as §1, §2

FAU = FAU (human, UniProt P62861 75-133)
Protocol: as §1, §2

T5 sequence (P35749 other isoform, or with tags, fused parts or gaps limits assumed): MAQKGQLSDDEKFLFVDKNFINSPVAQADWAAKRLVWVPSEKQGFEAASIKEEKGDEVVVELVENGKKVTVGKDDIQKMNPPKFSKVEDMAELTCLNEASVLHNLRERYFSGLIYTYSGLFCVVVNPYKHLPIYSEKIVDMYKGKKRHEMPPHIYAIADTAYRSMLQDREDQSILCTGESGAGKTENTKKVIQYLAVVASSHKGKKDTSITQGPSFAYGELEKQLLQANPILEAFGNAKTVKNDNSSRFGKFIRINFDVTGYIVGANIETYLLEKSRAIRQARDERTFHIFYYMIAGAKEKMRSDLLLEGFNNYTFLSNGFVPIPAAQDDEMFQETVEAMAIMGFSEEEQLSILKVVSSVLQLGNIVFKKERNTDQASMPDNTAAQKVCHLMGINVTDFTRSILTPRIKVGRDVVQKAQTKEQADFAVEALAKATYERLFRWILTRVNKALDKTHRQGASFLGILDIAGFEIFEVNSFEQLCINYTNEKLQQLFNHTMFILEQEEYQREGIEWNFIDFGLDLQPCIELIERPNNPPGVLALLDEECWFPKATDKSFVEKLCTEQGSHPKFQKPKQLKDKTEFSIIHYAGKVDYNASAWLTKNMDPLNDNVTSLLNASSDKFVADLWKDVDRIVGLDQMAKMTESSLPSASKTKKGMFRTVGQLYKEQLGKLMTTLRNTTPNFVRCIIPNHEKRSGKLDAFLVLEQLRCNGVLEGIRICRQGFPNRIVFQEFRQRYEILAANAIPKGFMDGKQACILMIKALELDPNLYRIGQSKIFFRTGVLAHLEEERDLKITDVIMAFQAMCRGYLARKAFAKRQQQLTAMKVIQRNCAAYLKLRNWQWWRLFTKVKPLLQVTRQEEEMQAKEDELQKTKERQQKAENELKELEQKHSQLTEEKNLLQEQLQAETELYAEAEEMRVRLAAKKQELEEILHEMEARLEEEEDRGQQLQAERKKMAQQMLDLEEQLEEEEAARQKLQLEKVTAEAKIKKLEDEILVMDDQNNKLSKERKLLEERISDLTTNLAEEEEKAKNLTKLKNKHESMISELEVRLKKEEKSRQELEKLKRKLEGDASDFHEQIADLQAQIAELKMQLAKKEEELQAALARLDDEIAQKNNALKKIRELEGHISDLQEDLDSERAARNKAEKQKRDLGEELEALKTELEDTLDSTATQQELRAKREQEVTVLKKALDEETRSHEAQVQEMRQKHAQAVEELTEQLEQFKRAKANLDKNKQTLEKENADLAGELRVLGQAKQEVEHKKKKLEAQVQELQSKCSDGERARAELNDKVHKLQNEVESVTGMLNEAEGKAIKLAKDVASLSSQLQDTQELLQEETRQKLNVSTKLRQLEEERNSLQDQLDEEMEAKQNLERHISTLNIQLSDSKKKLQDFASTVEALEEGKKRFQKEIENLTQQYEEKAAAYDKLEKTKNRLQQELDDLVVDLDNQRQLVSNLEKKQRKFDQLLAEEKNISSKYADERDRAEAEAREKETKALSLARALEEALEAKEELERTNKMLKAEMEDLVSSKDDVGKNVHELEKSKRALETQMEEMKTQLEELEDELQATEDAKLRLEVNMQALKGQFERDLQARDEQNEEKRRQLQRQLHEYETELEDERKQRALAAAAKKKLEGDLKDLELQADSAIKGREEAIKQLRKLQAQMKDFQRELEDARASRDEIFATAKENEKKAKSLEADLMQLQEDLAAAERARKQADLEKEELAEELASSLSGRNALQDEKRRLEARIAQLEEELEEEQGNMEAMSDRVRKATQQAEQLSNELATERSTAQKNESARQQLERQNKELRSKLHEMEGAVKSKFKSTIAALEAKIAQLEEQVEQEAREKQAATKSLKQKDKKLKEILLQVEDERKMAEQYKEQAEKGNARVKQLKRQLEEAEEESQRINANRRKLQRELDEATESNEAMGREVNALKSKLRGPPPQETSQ
T2 sequence (P48634 whole entry): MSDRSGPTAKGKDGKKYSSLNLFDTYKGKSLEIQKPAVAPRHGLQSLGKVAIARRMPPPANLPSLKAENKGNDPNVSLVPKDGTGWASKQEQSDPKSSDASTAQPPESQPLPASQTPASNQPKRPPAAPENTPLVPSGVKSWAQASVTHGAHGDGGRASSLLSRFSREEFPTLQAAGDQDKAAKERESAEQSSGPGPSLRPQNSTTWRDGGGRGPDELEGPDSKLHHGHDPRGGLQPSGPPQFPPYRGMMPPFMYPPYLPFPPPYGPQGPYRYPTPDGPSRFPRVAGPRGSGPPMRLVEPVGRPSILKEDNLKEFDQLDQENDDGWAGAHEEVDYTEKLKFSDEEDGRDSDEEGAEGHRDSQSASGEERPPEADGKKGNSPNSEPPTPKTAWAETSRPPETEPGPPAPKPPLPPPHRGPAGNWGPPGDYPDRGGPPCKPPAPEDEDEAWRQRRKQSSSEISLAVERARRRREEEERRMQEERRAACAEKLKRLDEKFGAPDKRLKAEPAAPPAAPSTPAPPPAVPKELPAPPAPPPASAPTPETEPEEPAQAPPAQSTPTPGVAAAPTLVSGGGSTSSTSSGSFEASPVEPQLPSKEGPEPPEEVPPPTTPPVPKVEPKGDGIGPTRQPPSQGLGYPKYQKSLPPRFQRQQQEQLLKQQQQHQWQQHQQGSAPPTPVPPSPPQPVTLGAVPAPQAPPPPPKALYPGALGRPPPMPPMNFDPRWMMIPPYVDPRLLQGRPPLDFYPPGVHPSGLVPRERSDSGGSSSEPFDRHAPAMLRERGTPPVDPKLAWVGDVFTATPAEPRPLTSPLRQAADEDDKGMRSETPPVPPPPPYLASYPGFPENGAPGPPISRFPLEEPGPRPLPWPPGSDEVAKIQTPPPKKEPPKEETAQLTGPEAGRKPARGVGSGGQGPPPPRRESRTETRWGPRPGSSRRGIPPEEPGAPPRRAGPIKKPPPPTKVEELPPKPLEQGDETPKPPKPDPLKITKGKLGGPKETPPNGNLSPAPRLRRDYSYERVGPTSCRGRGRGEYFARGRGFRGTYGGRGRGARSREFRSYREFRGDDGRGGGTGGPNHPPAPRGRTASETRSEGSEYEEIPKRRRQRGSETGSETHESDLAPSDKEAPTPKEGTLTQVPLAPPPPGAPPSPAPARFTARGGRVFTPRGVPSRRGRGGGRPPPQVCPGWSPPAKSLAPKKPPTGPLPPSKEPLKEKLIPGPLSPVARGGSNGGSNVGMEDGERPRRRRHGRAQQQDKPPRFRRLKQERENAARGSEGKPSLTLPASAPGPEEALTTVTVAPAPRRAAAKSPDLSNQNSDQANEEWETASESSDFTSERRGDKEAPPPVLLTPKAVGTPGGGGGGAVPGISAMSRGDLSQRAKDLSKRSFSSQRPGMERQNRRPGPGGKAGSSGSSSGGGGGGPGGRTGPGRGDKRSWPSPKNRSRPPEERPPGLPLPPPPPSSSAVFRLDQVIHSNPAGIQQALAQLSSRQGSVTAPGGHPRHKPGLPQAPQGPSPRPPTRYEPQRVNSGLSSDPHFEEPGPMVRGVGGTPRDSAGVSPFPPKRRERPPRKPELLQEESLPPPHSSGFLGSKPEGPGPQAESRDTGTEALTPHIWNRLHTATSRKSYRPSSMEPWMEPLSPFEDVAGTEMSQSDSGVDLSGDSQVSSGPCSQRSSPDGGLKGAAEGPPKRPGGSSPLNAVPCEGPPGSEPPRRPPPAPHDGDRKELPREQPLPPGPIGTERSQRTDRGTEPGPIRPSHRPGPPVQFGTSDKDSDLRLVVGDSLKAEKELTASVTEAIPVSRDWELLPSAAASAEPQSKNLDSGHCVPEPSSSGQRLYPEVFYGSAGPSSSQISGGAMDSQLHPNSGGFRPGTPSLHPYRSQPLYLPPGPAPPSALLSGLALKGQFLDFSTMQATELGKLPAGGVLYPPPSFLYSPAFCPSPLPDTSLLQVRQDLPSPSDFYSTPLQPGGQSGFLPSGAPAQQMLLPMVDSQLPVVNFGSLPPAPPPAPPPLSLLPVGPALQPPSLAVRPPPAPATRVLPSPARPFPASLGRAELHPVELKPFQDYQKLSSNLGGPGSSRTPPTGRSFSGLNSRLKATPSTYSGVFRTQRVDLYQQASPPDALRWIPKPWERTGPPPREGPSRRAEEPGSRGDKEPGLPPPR
T1 sequence (P22626 other isoform, or with tags, fused parts or gaps limits assumed): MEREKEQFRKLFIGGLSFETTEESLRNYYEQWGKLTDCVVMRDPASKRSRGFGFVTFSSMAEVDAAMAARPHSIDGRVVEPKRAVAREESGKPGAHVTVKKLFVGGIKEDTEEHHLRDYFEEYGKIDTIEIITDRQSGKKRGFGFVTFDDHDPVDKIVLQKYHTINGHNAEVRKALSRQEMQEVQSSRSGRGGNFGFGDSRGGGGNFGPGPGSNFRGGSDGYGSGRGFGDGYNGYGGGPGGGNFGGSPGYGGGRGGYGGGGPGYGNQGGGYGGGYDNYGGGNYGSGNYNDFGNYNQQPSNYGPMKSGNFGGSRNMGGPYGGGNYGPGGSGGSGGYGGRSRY

B1: C-terminal FLAG tagged B3GNT2 (enzyme, human, UniProt Q9NY97 1-397, looked up)
chain: MSVGRRRIKLLGILMMANVFIYFIMEVSKSSSQEKNGKGEVIIPKEKFWKISTPPEAYWNREQEKLNRQYNPILSMLTNQTGEAGRLSNISHLNYCEPDLRVTSVVTGFNNLPDRFKDFLLYLRCRNYSLLIDQPDKCAKKPFLLLAIKSLTPHFARRQAIRESWGQESNAGNQTVVRVFLLGQTPPEDNHPDLSDMLKFESEKHQDILMWNYRDTFFNLSLKEVLFLRWVSTSCPDTEFVFKGDDDVFVNTHHILNYLNSLSKTKAKDLFIGDVIHNAGPHRDKKLKYYIPEVVYSGLYPPYAGGGGFLYSGHLALRLYHITDQVHLYPIDDVYTGMCLQKLGLVPEKHKGFRTFDIEEKNKNNICSYVDLMLVHSRKPQEMIDIWSQLQSAHLKC
notes: Overexpressed in cells and pulled down from the lysate with mouse anti-FLAG antibody; also called C-FLAG B3GNT2; C-term flag; not shown: C-terminal FLAG tag
HNRNPA2B1
  co-IP mass spectrometry count: 8
PRRC2A
  co-IP mass spectrometry count: 5
FUBP3
  co-IP mass spectrometry count: 9
RBM39
  co-IP mass spectrometry count: 5
MYH11
  co-IP mass spectrometry count: 7
FAU
  co-IP mass spectrometry count: 7
